Assay results taken from PMC4840175, “A Substrate Mimic Allows High-Throughput Assay of the FabA Protein and Consequently the Identification of a Novel Inhibitor of Pseudomonas aeruginosa FabA” (Journal of Molecular Biology, 2016).

Substrate: CCCCCCCC(O)CC(=O)SCCNC(C)=O
Experiment: enzyme turnover, coupled PaFabA-PaFabV fluorescence assay (estimated KM) and direct UV assay
Format: biochemical, Pseudomonas aeruginosa

B1: PaFabA (3-hydroxyacyl-[ACP] dehydratase) (Pseudomonas aeruginosa PAO1) (protein)
chain: MTKQHAFTREDLLRCSRGELFGPGNAQLPAPNMLMIDRIVHISDVGGKYGKGELVAELDINPDLWFFACHFEGDPVMPGCLGLDAMWQLVGFYLGWQGNPGRGRALGSGEVKFFGQVLPTAKKVTYNIHIKRTINRSLVLAIADGTVSVDGREIYSAEGLRVGLFTSTDSF
Km: 400 µM
